Test results taken from the supplement of paper PMC9170038.

Test system: MS2 coat protein
Experiment: apparent KD of MS2 coat protein; designed switch direction (-1 OFF switch, 1 ON switch): -1; higher = weaker reporter binding
Summary of the method: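 An oligonucleotide input, 200 uM small-molecule ligand, or no input was present during titration of SNAP-549-labelled MS2 coat protein, which was doubled from 0.7 or 1.5 nM to 3 µM. Designed RNA switches had been transcribed on Illumina chips by stalled E. coli RNA polymerase. Apparent KD per design is the median over clusters of curves fitted to normalised cluster fluorescence.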

[1] = Eterna round: R95, input ligand: microRNA oligo, concentration not stated
[2] = input ligand: microRNA oligo, concentration not stated
[3] = Eterna round: R95, input ligand: FMN 200 uM
[4] = Eterna round: R95, input ligand: none

Sequence	apparent KD of MS2 coat protein [1]	apparent KD of MS2 coat protein (input ligand: FMN 200 uM)	apparent KD of MS2 coat protein (input ligand: none)	apparent KD of MS2 coat protein [2]	also measured
GAUUGACAUGAGGAUCACCCAUGUGAGGAUAUCGGCUGGACCGUGUUGGCUUGCCUUUCGAGAAGGCGCAUAGG [Exclusion 1 V48] (puzzle: Exclusion 1)	32.4 nM	–	–	–	–
GGCAAAUUUGUAAGGAUAUUGAGCAGCGAAGAGCUCGAGAAGGUACAUGAGGAUCACCCAUGUUUCUCAGACGC [Eternabot (Original) Solution 49] (Eterna round: R97, puzzle: Brourd's mod of Exclusion 4)	–	43.4 nM	17.7 nM	–	–
CUUUUGUGAGGAUAUCAGUAGUAGAACAAUAGUACUACUACUGAGAAGGCACAUGAGGAUCACCCAUGUUUCUC [Fiskers Ex 4 Super stable 44 mod 4] (puzzle: Exclusion 4)	58.7 nM	–	–	–	–
UUUAGUUCAGGAUAUGUAGAUUUUAACAUGAGGAUCACCCAUGUAGAUCCUGAAUUAACUACAGAAGGGAGCAUUU [Mod of Brourd 16 - Jieux - Exclusion 5] (Eterna round: R97, puzzle: Exclusion 5)	–	33.6 nM	18.4 nM	–	–
AGCUGUGGCCGAGGAUAUCUGAUAGUCCCAACCGAAAUAUAAUCGGACAUGAGGAUCACCCAUGUAGAGAAGGCGGUCUCAGCA [Eli eng2 - 070] (Eterna round: R96, puzzle: Exclusion NG 2)	–	214 nM	73.9 nM	57.9 nM	–
AACGAUCUAGGAUAUACAUGAGGAUCACCCAUGUAAGAGCUCAAACCGAGCUCCCUCUGUAGAAGGAGGUCAAA [Atquteuson] (puzzle: Exclusion 3)	48.5 nM	–	–	–	–
AAUAAUAAAGUCAGGAUAUCUAGAGCUGCGGCUCUAGAGAAGGGACAUGAGGAUCACCCAUGUCACUCAAUAAU [BmEx4/3-D3] (Eterna round: R97, puzzle: Brourd's mod of Exclusion 4)	–	18.1 nM	14.7 nM	–	–
GCGCGGCGUGUAGGAUAUGCGCGCGGGUCGCGCGCAGAAGGACAUGAGGAUCACCCAUGUGGCGCGCUUGGCGCGCCGCCGCGC [-48, -45 kcal and 14% A] (Eterna round: R96, puzzle: Exclusion NG 1)	–	16.6 nM	12.9 nM	9.64 nM	–
ACAUUACAUGAGGAUCACCCAUGUGAGGAUAUGGAGCGAGACUGUCCUGUCGCGUACACCAGAAGGCGCGGGUG [1st #51] (Eterna round: R97, puzzle: Exclusion 1)	–	115 nM	131 nM	–	–
UUUUCAUAUGAAGGAUAUACUUAACAUGAGGAUCACCCAUGUGGUGUUGUGAGUGAGUGAGUUUAGUAGAAGGUCAAGUAUUUU [JMF's solution 48] (Eterna round: R96, puzzle: Exclusion NG 2)	–	805 nM	304 nM	304 nM	–
UAAAAUAGUGUGAGGAUAUGCUGGUCCUUGGAUCAGCAGAAGGCACAUGAGGAUCACCCAUGUAGUUAAUUUUA [Mat - Exclusion 4 - JL Mod - D23] (puzzle: Brourd's mod of Exclusion 4)	30.8 nM	–	–	–	–
UCUCGUUGGCAAGGAUAUCCUACAUUGUUCUGGCCCGGGCAUGCUACAUGAGGAUCACCCAUGUGGGAGAAGGUGCGCCAUUGC [Design 24] (Eterna round: R96, puzzle: Exclusion NG 2)	–	80.9 nM	65.2 nM	49.7 nM	–
AAGAAGAAGUAAGGAUAUGAAGAUCUGGUGGUGACAUGAGGAUCACCCAUGUGAAAACGAUGAGAUCAGAAGGUACAAGAAGAA [AK ExNG2-3.4] (Eterna round: R96, puzzle: Exclusion NG 2)	–	86.4 nM	77.8 nM	65.3 nM	–
GUUAACGCAGGAUAUUAGUACUUUUACAUGAGGAUCACCCAUGUUAAUUGGGUCUAAGAAUAAGAAGGGCGAUGAA [JR_Ex5_Sub009] (Eterna round: R97, puzzle: Exclusion 5)	–	48.3 nM	42.8 nM	–	–
CCGGAUAUGCAGGAUAUCGAAUCGGAAACGAUUCGAGAAGGGUAUACAUGAGGAUCACCCAUGUGUCCUACCGG [Mat - Exclusion 6 - Eli Mod - D87] (puzzle: Exclusion 6)	19.4 nM	–	–	–	–
AGGUCCUUCUGGACACAUGAGGAUCACCCAUGUGCGGUCAGCGAGGAUAUCGGUCUAUAAUGUGACGAGAAGGCGCGGACCGAU [Ex NG3 #60] (Eterna round: R96, puzzle: Exclusion NG 3)	–	38.9 nM	20.7 nM	15.3 nM	–

Sequence	apparent KD of MS2 coat protein [1]	apparent KD of MS2 coat protein (input ligand: FMN 200 uM)	apparent KD of MS2 coat protein (input ligand: none)	apparent KD of MS2 coat protein [2]	also measured
CAGUACUGAGGAUAUACAUGAGGAUCACCCAUGUGCCUAAGGUAGGAUACUACCAUUAGUAGAAGGCAGUACUG [Fiskers Ex 3 828 mod 16] (puzzle: Exclusion 3)	13.6 nM	–	–	–	–
AAAUUACAAGCAAGAUCCUACAUGAGGAUCACCCAUGUGCUCGUCUUAUAAAGUACUAUCACGAAAGUGAUAGUACA [Mat - Sensor v3 - turn-off var 1 - Eli Mod - D58] (puzzle: Sensor v3, turn-off variant 1)	304 nM	–	–	–	apparent KD of MS2 coat protein [3]: 256 nM; apparent KD of MS2 coat protein [4]: 329 nM
ACAUGAGGAUCACCCAUGUUUGGCUGGUUUUCUCCGGCUGUCGAGGAUAUAGUCCGGUAUCCGCGCUAGAAGGUGAGGGUCGGC [Aenatbe mod 3] (Eterna round: R96, puzzle: Exclusion NG 3)	–	12.1 nM	21.6 nM	17.6 nM	–
AGGUGCUUCUGGAGACAUGAGGAUCACCCAUGUCGAGUCAGCGAGGAUAUCGGUAAGGCAUGUGAUGAGAAGGCGCAGACCGAU [Ex NG3 #51] (Eterna round: R96, puzzle: Exclusion NG 3)	–	33.7 nM	26.4 nM	20.3 nM	–
UAUUAGCAAGCGAGAUCCCACAUGAGGAUCACCCAUGUGCUCGUCUUAUAAAAGACUGUGACGAAAGUCACGGUCAC [Mat - Sensor, turn-off var - Eli Mod - D21] (Eterna round: R97, puzzle: Sensor, turn-off variant 1)	–	14.6 nM	15.7 nM	–	–
UACCUGAGGCAAAGCUUUAGGUAAACAUGAGGAUCACCCAUGUAGGAUAUGGUAGGCAAAGCUUACCAGAAGGACAUGUUAAUU [Mat - Exclusion NG 3 - Mod of JL - D34] (Eterna round: R96, puzzle: Exclusion NG 3)	–	341 nM	83 nM	79.5 nM	–
GGGAAGGGAGGAUAUGAGGAGGAGAACAUGAGGAUCACCCAUGUGAGGCCUCAGGAUCAAUCAGAAGGCCCGAUCC [AK-MS2ROC-r4-exclusion5-15.1] (Eterna round: R97, puzzle: Exclusion 5)	–	78.1 nM	26 nM	–	–
GGUGGACAUGAGGAUCACCCAUGUGAGGAUAUCGGCUGGCUAGUGGCGGCUGGCUUCUCGAGAAGGCGCAUAGU [Exclusion 1 V79] (puzzle: Exclusion 1)	42.2 nM	–	–	–	–
AGCAUGUUAGGAUAUGCCAAAAUUAACCACGACUCAGUGAUGCAGAAGGAACAUGAGGAUCACCCAUGUGCUCC [Eternabot (L1) Solution 16] (Eterna round: R97, puzzle: Exclusion 4)	–	219 nM	38.2 nM	–	–
UUUUAACAUGAGGAUCACCCAUGUGAGGAUAUCGAAAUUUAUAUUAAUAUUUAUAAAACGAGAAGGCACAUUUU [JMF 51] (puzzle: Exclusion 1)	78.6 nM	–	–	–	–
UUUUACGAAGGAUAUACAUUUUUUUUAUUAUUUUCAUUAUUACAUGAGGAUCACCCAUGUAGAAGGUCGAUUUU [My Design] (puzzle: Exclusion 2)	27.7 nM	–	–	–	–
CUGAGCAGACGGAGAUCCAACAUGAGGAUCACCCAUGUCUCAAAAGCUUUCUGCUCGUCUUAUCCUCCUCUGUUCUC [Engeonrati] (puzzle: Sensor v3, turn-off variant 1)	205 nM	–	–	–	apparent KD of MS2 coat protein [3]: 129 nM; apparent KD of MS2 coat protein [4]: 151 nM
AAUUAUUAUUGAGGAUAUCGUAUUGAAACAAUACGAGAAGGCGGAAUAAACAUGAGGAUCACCCAUGUGAGCCUGAUGCUUGUG [Ex NG1 #42] (Eterna round: R96, puzzle: Exclusion NG 1)	–	–	–	13.4 nM	–
CACGAAAUGUGAGGAUAUGUGCGACAAAGUUGCACAGAAGGCACAUGAGGAUCACCCAUGUAAGCUAGGUCGAAAGACCUAGCG [Omei Exc(NG)1 Av2] (Eterna round: R96, puzzle: Exclusion NG 1)	–	269 nM	89.8 nM	56.3 nM	–
CGUUGGAAAGGAUAUACAUGAGGAUCACCCAUGUGAAAUUAUAGUGAGGAAAUGAAAAGUAGAAGGUUCUGACA [Mod of Mat 6 - Jieux - Exclusion 3] (Eterna round: R97, puzzle: Exclusion 3)	–	61.2 nM	25 nM	–	–
